Source: PMC11247618 (Immunity, 2024)

B1: hcab17 Fab (Fab, V domains shown)
VH: QVQLNQWGAGLLKPSETLSLTCAVYGDAFSGNYWSWIRQPPGKGLQWIGEINHSGNTNYDPSLESRVSISLDTSKNQLSLKLNSVTAADTALYYCARGQRNCSGGNCYSGLWAWGQGTLVTVSS
VL: AIHMTQSPFSLSASVGDRVTITCRASQGIRNDLAWYQHKPGTAPKVLIYAASSLQDGVSSRFSGSGSGTLFTLTISSLQPEDFATYYCLQGYNYPRTFGQGTKVEMK
B2: hcab64 Fab (Fab, V domains shown)
VH: QVQLVQSGAEIQKPGASVKVSCRASGYTYISTSFHWVRQAPGQGLEWMGVIKTDDGSTSDTQKFQGRLRMTWDTSTSTVYMELSSLRSDDTAVYYCVSPRLGHCRRGRCYETLDWGQGSLVTVSS
VL: EIVLTQSPGTLSLSPGERATLSCRASQSVSSSYLAWYQQKPGQAPRLLVYGASTRATGIPDRFSGSGSGTDFTLTISRLEPEDFAVYYCHQYSSSFWTFGQGTKVEIK
B3: hcab40 Fab (Fab, V domains shown)
VH: QVQLQQWGAGLLKPSESLSLTCVVYGGSFSGYYWSWIRQPPGKGLEWIGEINPTGSTNYNPSLNSRVTISVDRSKNHLSLKLSSVTAADTAVYFCARFLPPDYDLLTDYFDPPGAFDIWGQGTMVTVSS
VL: DIHMTQSPFSLSASVGDRVTITCRASQSISGWLAWYQQKVGNAPKLLIYKASSLESGVPSRFSGSGSGTEFTLSISSLQPDDFATYYCQQYNSYPFTFGPGTKVDMK
B4: hcab55 Fab (Fab, V domains shown)
VH: QVQLVQSGAEIKKPGASVKVSCKASGYTFISNYFHWVRQAPGQGLEWMGIINPSSGSTTYGQKFQGRVTLTSDTSASIVYLELSRLRSEDTAVYYCVSPRIAHCRGGRCYETLDWGQGTLVTVSS
VL: EIVLTQSPVSLSLSPGERATLSCRASQSVSSNYLAWYQLKPGRAPRLLIYGASSRAPGIPDRFSGSGSGTDFTLTISRLEPEDFAVYYCQQYGISSWTFGQGTKVEIK

Biological target: 1b09 HCV E2 ectodomain (E2ecto) (Hepatitis C virus genotype 1b, strain …, strain)
Experiment: crystal structure

| Binder | binding result |
| --- | --- |
| B1 | binds |
| B2 | binds |
| B3 | binds |
| B4 | binds |
